Starred links: 1 amine or outer side, 2 acyl side, 3 side chain; linkers in the order of their positions; H or OH if unused. Positions of bridges follow the written chain, without caps; N, C: chain ends. Non-standard residues stand in square brackets, D forms with d. Primed or numbered codes have the meaning given here. B5(15) = 2-amino-2-(pent-4-en-1-yl)hept-6-enoic acid (2,2-bis(4-pentenyl)glycine), stitching residue bearing two staples, C=CCCCC(CCCC=C)(N[*:1])C(=O)[*:2]; B5(23) = 2-amino-2-(pent-4-en-1-yl)hept-6-enoic acid (2,2-bis(4-pentenyl)glycine), stitching residue, C=CCCCC(CCCC=C)(N[*:1])C(=O)[*:2]; Bta = N[C@@H](Cc1csc2ccccc12)C(=O)O; αAllylPro = C=CC[C@@]1(C(=O)O)CCCN1; S8 = C=CCCCCCC[C@](C)(N)C(=O)O; hSer = N[C@@H](CCO)C(=O)O
T1: B-cat-Halo (beta-catenin HaloTag NanoBRET construct expressed in HEK293 cells) (UniProt P35222 1-781)
T1 sequence (looked up): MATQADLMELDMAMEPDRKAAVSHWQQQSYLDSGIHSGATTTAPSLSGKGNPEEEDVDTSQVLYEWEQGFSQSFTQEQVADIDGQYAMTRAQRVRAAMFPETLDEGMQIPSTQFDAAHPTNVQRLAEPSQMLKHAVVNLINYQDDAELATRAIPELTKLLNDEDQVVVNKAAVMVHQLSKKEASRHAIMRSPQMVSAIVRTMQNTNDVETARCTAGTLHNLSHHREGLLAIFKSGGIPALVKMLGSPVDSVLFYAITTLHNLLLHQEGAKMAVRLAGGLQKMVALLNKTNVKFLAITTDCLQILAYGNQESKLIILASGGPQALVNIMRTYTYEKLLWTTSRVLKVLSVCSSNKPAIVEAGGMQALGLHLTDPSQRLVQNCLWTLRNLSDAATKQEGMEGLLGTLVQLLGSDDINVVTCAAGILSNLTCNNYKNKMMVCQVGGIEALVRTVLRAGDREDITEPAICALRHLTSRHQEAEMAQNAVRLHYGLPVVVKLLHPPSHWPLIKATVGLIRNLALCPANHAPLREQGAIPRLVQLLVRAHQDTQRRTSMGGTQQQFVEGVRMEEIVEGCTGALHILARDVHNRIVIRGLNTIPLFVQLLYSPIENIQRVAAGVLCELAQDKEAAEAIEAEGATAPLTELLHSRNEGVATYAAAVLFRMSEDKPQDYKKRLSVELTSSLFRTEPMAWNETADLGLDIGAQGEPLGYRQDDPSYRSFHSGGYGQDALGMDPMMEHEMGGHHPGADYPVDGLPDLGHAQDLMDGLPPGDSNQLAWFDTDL

T2: full-length beta-Catenin (Uniprot ID P35222) (Homo sapiens (Human), UniProt P35222 2-781)
T2 construct: full-length; also called bCat; B-Catenin
T2 sequence: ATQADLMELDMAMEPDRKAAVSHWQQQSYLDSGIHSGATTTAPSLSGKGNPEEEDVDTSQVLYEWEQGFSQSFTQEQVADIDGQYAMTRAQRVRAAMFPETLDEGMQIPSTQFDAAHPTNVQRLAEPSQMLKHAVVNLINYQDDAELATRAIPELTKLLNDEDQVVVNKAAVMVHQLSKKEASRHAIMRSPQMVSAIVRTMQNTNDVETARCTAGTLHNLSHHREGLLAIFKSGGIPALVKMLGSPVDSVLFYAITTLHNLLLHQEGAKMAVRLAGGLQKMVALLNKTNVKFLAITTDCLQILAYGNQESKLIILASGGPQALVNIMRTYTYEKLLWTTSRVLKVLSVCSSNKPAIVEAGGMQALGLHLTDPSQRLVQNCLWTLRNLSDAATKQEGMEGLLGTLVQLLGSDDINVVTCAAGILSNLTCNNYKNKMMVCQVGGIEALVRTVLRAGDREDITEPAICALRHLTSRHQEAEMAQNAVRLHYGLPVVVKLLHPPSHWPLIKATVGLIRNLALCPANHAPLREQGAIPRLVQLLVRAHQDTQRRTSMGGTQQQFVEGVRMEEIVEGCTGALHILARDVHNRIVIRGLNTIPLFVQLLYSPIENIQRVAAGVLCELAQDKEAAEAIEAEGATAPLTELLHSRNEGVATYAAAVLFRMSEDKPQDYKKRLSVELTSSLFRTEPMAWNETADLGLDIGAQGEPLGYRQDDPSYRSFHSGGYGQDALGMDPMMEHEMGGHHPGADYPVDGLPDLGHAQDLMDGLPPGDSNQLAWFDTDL


Assays:
[1] = biological target: T1, B-cat-Halo (beta-catenin HaloTag …); assay: cell-based or functional assay
[2] = biological target: T2, full-length beta-Catenin (Uniprot ID …); assay: fluorescence polarization competition; displaces 5FAM-TCF4(10-53) from full-length beta-catenin
Description: The plate was incubated protected from light for 60 minutes at 20° C. prior to read. Reads were performed on a CLARIOstar plate reader (BMG Labtech) in duplicate, and data were fitted to a 1:1 binding model with hill slope using an in-house script. All provided concentrations are final concentrations.

| Binder | NanoBRET Abs IC50 [1] [µM] | IC50 [2] [nM] |
| --- | --- | --- |
| XDSXDEAAFQXFXQ (not fully specified; N-terminal Ac; PL3 at 1, B5 at 4, S8 at 11 (staples PL3-B5 and B5-S8 by olefin metathesis); Hse at 3; BztA at 13; C-terminal NH2, Stapled peptide composition; earlier eluting HPLC peak (staple isomer); also called Ac-PL3-Asp-Hse-B5-Asp-Glu-Ala-Ala-Phe-Gln-S8-Phe-BztA-Gln-NH2) [I-1544] | > 20 | 61 |
| Ac-[αAllylPro]DN[B5(15)]DEAAF[hSer][S8]F[Bta]Q-NH2 (staple 1-4, 4-11; not fully specified; printed as Ac-PL3-Asp-Asn-B5-Asp-Glu-Ala-Ala-Phe-Hse-S8-Phe-BztA-Gln-NH2, Stapled peptide composition; Same description as I-1535; earlier eluting HPLC peak (staple isomer); also called Ac-PL3-Asp-Asn-B5-Asp-Glu-Ala-Ala-Phe-Hse-S8-Phe-BztA-Gln-NH2) [I-1534] | > 20 | 181 |
| Ac-[αAllylPro]DN[B5(15)]DEAAFL[S8]F[Bta]Q-NH2 (staple 1-4, 4-11, Stapled peptide composition; also called Ac-PL3-Asp-Asn-B5-Asp-Glu-Ala-Ala-Phe-Leu-S8-Phe-BztA-Gln-NH2) [I-1533] | > 20 | 76 |
| Ac-[αAllylPro]D[hSer][B5(15)]DEAAFL[S8]F[Bta]Q-NH2 (staple 1-4, 4-11, Stapled peptide composition; also called Ac-PL3-Asp-Hse-B5-Asp-Glu-Ala-Ala-Phe-Leu-S8-Phe-BztA-Gln-NH2) [I-1546] | 37.9 | 71 |

The next binders have a lower IC50 [2] than those just listed; values first:

| NanoBRET Abs IC50 [1] [µM] | IC50 [2] [nM] | Binder |
| --- | --- | --- |
| 15.3 | 22 | Ac-[αAllylPro]DF[B5(23)]DEAAFL[S8]F[Bta]Q-NH2 (staple 1-4, 4-11, Stapled peptide composition; also called Ac-PL3-Asp-Phe-B5-Asp-Glu-Ala-Ala-Phe-Leu-S8-Phe-BztA-Gln-NH2) [I-1550] |
| 42.4 | 17 | XDQXDEAAFQXFXQ (not fully specified; N-terminal Ac; PL3 at 1, B5 at 4, S8 at 11 (staples PL3-B5 and B5-S8 by olefin metathesis); BztA at 13; C-terminal NH2, Stapled peptide composition; Same description as I-1539; later eluting HPLC peak (staple isomer); also called Ac-PL3-Asp-Gln-B5-Asp-Glu-Ala-Ala-Phe-Gln-S8-Phe-BztA-Gln-NH2) [I-1540] |
| 19.8 | 16 | Ac-[αAllylPro]DF[B5(23)]DEAAF[hSer][S8]F[Bta]Q-NH2 (staple 1-4, 4-11, Stapled peptide composition; also called Ac-PL3-Asp-Phe-B5-Asp-Glu-Ala-Ala-Phe-Hse-S8-Phe-BztA-Gln-NH2) [I-1551] |
